Test: label from the status in PepcDB records

Row | Sequence | protein production
1 | MRAMRWILPLLLAIGVAAPARAASEWAVKDGSVQVKAHADEQGRAVVRASIEIAAPPSVVFGVILDCGRAARMSPGVKRCRVVSRAADGSEVREHTVKWGFFLPALQSRSRLSLQPDREIRFTCIGGDIRACDGFWRLEPLDGGMRTRVTYDLWATAPYAAPAGLVSSLMRRTVPQSLAALRRECEGG | failed
2 | MLFFADRSPFVRPLSGYAPVTPAAPRSTGSAAAPPPSPAVLDDRSGTEGDVTPMMAQYLAVKAAHPDCLLFYRMGDFYEMFFEDAVKAAETLDIALTKRGRHAGADIPMCGVPIHSHEGYLSRLIRAGIKVAICEQMEDPAEARRQRGYKAVVRRDVIRVVTAGTLTEDELLDARAHNYLAAVVRLRDAVGMAWVDVSTGDLVAQPLAEADIGPALARLAPGEVLMPEKLAGDPALREILAPLAGRISPLPASRFDSENARKRVEGLFGVKALDGFGGFGRAEVAAIGALIDYVELTQVGRLPRLSPPRRLSLGAILEIDGATRRNLELTETLGGGRKGSLLARIDCTVTGAGARLLAERLAAPLTDPAQIGARLDGVGFLVSAERVRGDLRDTLRGCPDIARALSRLSLGRGGPRDLAAIGEALSRIPALRVLVVGAGLGEPPTELTAALIDLGSHEGLVDLLGRALDADLPLLARDGGFIRPGYDAGLDELRALRDEGRRLIAGLQARYASETAIPALKIKHNNVLGYFIEVAAGRADKLMAAGGPFLHRQTLASQVRFTTVELSELEDKIRGAADKALALEQALFATLCAEVLGCAADIARAANGLACLDVAAALADLAARERYARPVVDNSTAFRIHKGRHPVVEAALADQAGPAFVANDCDLAPDQRLWLLTGPNMAGKSTFLRQNALIAVLAQMGSFVPAESAEIGVIDRLFSRVGAADDLARGRSTFMVEMVETAAILNQATERSLVILDEIGRGTATYDGLSIAWATVESLHDATRCRALFATHYHELTALASRLDRLSCHTLRIKEWKDQVVFLHEVGPGAADRSYGIHVAKLAGLPAAVIARAEQVLAILEKGDASSAATRLADDLPLFAAARPRAGLPTPPPGPHPLAEALNAINPDEMTPREALDALYRLKAVMKRE | failed
3 | MSTYLIGDIHGCLDELLALLAQVNFDPQQDTLWLTGDLVARGPASLDVLRYVRSLGPAVRMVLGNHDLHLLAVYAGISRNKPKDRITPLLDAPDADELINWLRRQPVLQVDDQLKLIMAHAGITPQWDIETAKMCAREVEAVLSSDSYPLFLDAMYGDMPNNWSPELTGLARLRFSTNALTRMRFCFPNGQLDMICKDTPENAPAPLKPWFDLPRLVDPEYSIIFGHWASLEGKGVPEGIYGLDTGCCWGGDLTLLRWDDKRYFTQRAFKAEAEINNNNGFAAGEAVQH | failed
4 | YLYFNSDSFILLIAPTRSGKGVGVVIPNLLVYNQSMVILDLKQENFSITSKYRAKYGQQVFLFNPFTENGQTHRYNPLSYVREGDCKIGDILTITASFYPIDDLKNSFWNNQASNLFLGLALMISETPSLPFTIGELLRQSSGKGKPLKEYLQGIMDDREKSSSPLSESCIDALNRFIALTDNSLSNVLASFNAPLTLWANPLFDAATSANDFDLRELRKKKMTVYIGITPDYLEQAERILNLFFSQLININTKELPEHNPELKYQCLLVMDEFTAMGRIGILAKSVSYMAGYGLRLLTIIQAPSQLDSVYGKEEARTYKTNHAGQILFAPRENEDAEEYSKAIGYKTVKAKSNSKTRGELKQTDSTSDQRRAVMLPQEIKEIGMWKEIICIENLKPIFCKKVQYFNDPVFIDRLKEVSS | failed
5 | MLDTLVFGCVAFPLLAALAVYFVRGEAARRLIVPGAVAVTALSALGMAGSGPIMFAPKSFLGIGLDGLIAFLDFALLFYILYLGTKMRHLLIMGMTVLQIVGLIYLEFFLMDHGATVPGFYVDSLSLTMVLIISFVGGLICVYGLGYMKEHEEHLHLPQTKQPRFFFFVVLFLGAMNGLVLSNNLAWMYFFWEITTLCSFMLIGHDGTDEAKTNATRALWMNMVGGVAFVFALLFLQKGMGTLSVQDILARAVEPEMRTTAVLLPMAMLCLAGFTKSAQLPFQSWLCGAMVAPTPVSALLHSSTMVKAGVYLILRMAPGYAGTALSTGVALFGAFTFIVTSALAAGQSNGKKILAYSTIANLGLIVACAGINTAASVAAAMMLIIFHAISKGLLFLCVGAIEQKIGSRNIEDMRNLFERMPRTAVITVIGIVTMMLPPFGMLIAKWMAIESAAGAMSAMPLLVIMIALGSALTVLFWARWAGIMLGSSRPGFGPMQEEQDITIRLPLVSLVGGALVLSLLAPFVYTGLVEPAIAMYAKASAYGVSIGTIGNTMGAFAVYPLYLLLGAGFYYAWRAARNTPDSAASLPYMGGSQMTQDGVVGFNGPMNQFVPNAAGNYYLEKLFGEAQLTKPGNVVAIVLLILMIGGML | failed
6 | CFVTRIRLLDSNVIECTLSVESTGQECLEAVAQRLELRETHYFGLWFLSKSQQARWVELEKPLKKHLDKFANEPLLFFGVM | failed
7 | MVSDAALHGKLAVEHASDHLVVLAQADSGPITVDQFKEKLKEVQQEEQLGWLTAIGKYFIGIFQKGGEVFAGFVTGIIPTLVVLMTAFYAVTELVGEERVHGLARGAGRIALTRYTLLPLLAVFFLTNPMAYTFGSFLEEKHKPAFYDAAVSYVHPPLGLFPHINPGEYFVWGGILVALLELEKKGVVVAGYHVKVAIWYAIVGLVVILLKGMLTERITTIMARRQGVEL | failed
8 | MFRRTLPVLAAAVGLAAAAAGPATADDVPADRLPGHRVLDVMTFNIHHAQGTDDVLDLRRVANVIRKSGADVVGLQEVDKHYSARSDWADQPAELAELLGYHVVFGANIDNSPPAPGGHRVQYGTAILSRYPITASDNTWLYKSPGQEQRGLLHATLDVHGKKVEFYNTHLAAGSQADRLQQTAQVVDLIGTRKPGILVGDFNALPAAPESRPLQNAYTDAWAKSLHARGDGATYPAQSPTERIDLIYATRRVTPLVAQVLKDDPAASDHRPLLGKVLV | failed
9 | LHARLLQQESIINALPFAVFIRTAAGELAVYNSHFAEAHQDKLNDLLNHNNEPANWPMTSPLDREIDKYCRQVLTHRKPQMVDLSLEINGELRDIFLWIIPLDNAERSLFGGWLDISQRKTVERQLEAARVEAESANRTKSTFLATISHELRTPMYAIMGLL | failed
10 | MAQADTPAPVARLPRRRGIELALILMAVLLSVFGYCNVGLAQHDALPPGAAGYGAGLGVLALLAHLAVRLRAPYADPLLLPIGVLLNGLGLVLIYRLDLETPGDRAAPTQLVWSTLGVALFIVVVLLLRDHRVLQRYAYVCVAAALALLTVPIFFPAVNGARIWIRIEGFSIQPGEFAKVLLAVFFAAYLAANRSALAYAGRRVWRLQLPTGRVLGPILAVWLVSVGVLVLERDLGTSLLFFGLFVVLLYVATGRTGWIAVGLLLASLGAVAVGWLEPHVHSRVEDWLHPFASIEAGHGPNQLAQSLFAFAAGGVTGTGLGLGHSVLIGFAVKSDFILATAGEELGFLGLSAVFLLYGLLVERGYRAGLGARDPFGRLLAVGLSSIVALQVFVIAGGVTGLIPLTGMAMPFLAQGGSSVVTNWAIVALLIRVSHAARSQAGGRAEP | failed
11 | MPYVDRQNRICGFLDIEDNENSGKFLRRYFILDTQANCLLWYMDNPQNLAVGAGAVGSLQLTYISKVSIATPKQKPKTPFCFVINALSQRYFLQANDQKDLKDWVEALNQASK | not failed
12 | MAMAVPVSARPQSPAEGFYAINNQFQTNGPKGFSEIKILANEDMFLRMDLPGVPDEGGLSVYHNRSQETVVVFAKAPKVHTHDSTERRYQTMTGIGCSCCAISSITTHMSDGVFRVILSKTRIDPHRSPCTDPALTGPVLQPHPLAFPQPTMAYESKQLPNGKLFVRADMPGVPKENFTVSVTNGRVKVTGQAPAVSHDSSGRFYSGDVAMLSTPVDIPSRRIKTIAKNGVIRLLIPPF | failed
13 | IVRDSQRHKQLPVDRRKSQMEEVQDELIHRLTIGRSAAQKKFHVPRQNVPVINITYDSTPEDVKTWLQSKGFNPVTVNSLGVLNGAQLFSLNKDELRTVCPEGARVYSQITVQKAALEDSSGSSELQEIMRRRQEKISAAASDSGVESFDEGSSH | failed
14 | MPSSRRVRSRCCAFGITKRFACIRPACQRARMDAQMTNFETRLRENAAKTEALLGHLLSGEARADEITRPQNLLEAMRHGVLNGGKRLRPFLVIESVALLGGDAEAGLHVGAALECLHCYSLVHDDLPAMDDDDLRRGQPTVHRKFDEATAILAGDSLLTLAFDIIASDDNPLAAERKAALVISLARAAGIGGMAGGQALDLAAEKKAPDEDGIITLQAMKTGALLRFACEAGAIIAGSNQAERQRLRLFGEKIGLSFQLADDLLDLTADAATMGKATGKDAARGKGTLVALRGEAWAREKLQE | not failed
15 | MNMGKKIQEMAVWLEFLVGSGLAIFFHLVLHYEQAAYVIFGIGILLALGTYLIREEIEKNRSHLVEQYQQAHEIPFAMAGIADPECLAKAHELIAGTRRTITILQQGYIPLDENEFYLEGAKLSDQAVREIRAVDPLMAGWWTRGALVNFYQANLRALDRGVRIRRIFVVNREELGEPEVQKVLLSHYRDDIDIRIVYRDELPAAGEIIGRDTNSSFDFALYDDRVATDVFAHPGKYYGRKTAQPMEVAKYRHLYELIEHSAHTVSEDGDRIVPSAEVMPLAS | failed
16 | SDPEISEQDEEKKKYTSVCVGREEDIRKSERMTAVVHDREVVIFYHKGEYHAMDIRCYHSGGPLHLGEIEDFNGQSCIVCPWHKYKITLATGEGLYQSINPKDPSAKPKWCSKGVKQRIHTVKVDNGNIYVTLSKEPFKCDSDYYATGEFKVIQSSS | failed
17 | MTLKAGIVGIGMIGSDHLRRLANTVSGVEVVAVCDIVAGRAQAALDKYAIEAKDYNDYHDLINDKDVEVVIITASNEAHADVAVAALNANKYVFCEKPLAVTAADCQRVIEAEQKNGKRMVQIGFMRRYDKGYVQLKNIIDSGEIGQPLMVHGRHYNASTVPEYKTPQAIYETLIHEIDVMHWLLNEDYKTVKVYFPRQSSLVTTLRDPQLVVMETTSGINIVVEVFVNCQYGYDIHCDVTGEKGMAELPTVASAAVRKAAKYSTDILVDWKQRFIDAYDIEFQDFFDRLNAGLPPAGPTSWDGYLAAVTADACVKSQETGNTEIVELPSKPDFYK | not failed
18 | MATGKISKRSIDALRPNASNQFLWDTDLKGFGAKITPAGAISYVLQFRMGGREASTRRYTIGAHGSPWTPTTARAEAERLLLLIGQGVDPVDADKQRRREAVDLAFANYAERFARSCKGDGWRRLVERAIRLYLTPVLGKKALPAINRTDVVSVFDNMPADQVANRRNVFAVLRRLFRWAVSRGDLDRSPMEGMETPPPVKARERWLSDDELRLIWNAAPECHRCFGPIVRLLIATGQRREEVSGMRWSELSRTDKLWTLPGDRTKNGEPNTIPLNDLAVAELDAAAGGDKWPRKGRVFATSTGAGFTGYAKGKDKLDRLIELAEGEPLPPWRLHDLRRTLATNFQRLGVRFEVTEAVLNHVGGSRSGVAGIYQRHDWKEEKRQALDDWNSHLEQILMRPSPGNRQAASQAAADLDK | failed
19 | MLKTYQKLLAMGIFLIVLCSGNAAFAATNQVGGLSNVGFFHDYLIEPFSALLKGVAGLFHGEYGLSIILVTIIVRIVVLPLFVNQFKKQRIFQEKMAVIKPQVDSIQVKLKKTKDPEKQKELQMEMMKLYQEHNINPLAMGCLPMLIQSPIMIGLYYAIRSTPEIASHSFLWFSLGQSDILMSLSAGIMYFVQAYIAQKLSAKYSAVPQNPAAQQSAKLMVFIFPVMMTIFSLNVPAALPLYWFTSGLFLTVQNIVLQMTHHKSKKTAALTESVK | failed
20 | MGHHHHHHSHMDTPENVLQMLEAHMQSYKGNDPLGEWERYIQWVEENFPENKEYLITLLEHLMKEFLDKKKYHNDPRFISYCLKFAEYNSDLHQFFEFLYNHGIGTLSSPLYIAWAGHLEAQGELQHASAVLQRGIQNQAEPREFLQQQYRLFQTRLTETHLPAQAR | failed
